Data on 1 substance can be found in US20160031946A1.

This test deals with OVA257-264 (SIINFEKL) presented by H-2Kb on dendritic cells (chicken; mouse). Kind of test: cell-based or functional assay.

In turn, “OT-1 T cell receptor (TCR of OT-1 TCR transgenic mice, specific for the OVA257-264 epitope)” registered a proliferating CD8+ T cells (CFSE dilution), BMDCs loaded with ZEBRA-OVA257-264 after maturation of 70%; a proliferating CD8+ T cells (CFSE dilution), BMDCs loaded with ZEBRA-OVA257-264 before maturation of 69%; a proliferating CD8+ T cells (CFSE dilution, 5 days), DCs loaded with ZEBRA-OVA257-264 of 81%; a proliferating CD8+ T cells (CFSE dilution, 5 days), DCs pulsed with 10 uM Ova peptide (positive control) of 93%.
